Biological target: mouse synaptosomes

active botulinum neurotoxin A (from UniProt P0DPI0 2-1296)
maximum inhibition: 78%
